Assay results taken from paper PMC3374832, “The Structure of the Oligomerization Domain of Lsr2 from Mycobacterium tuberculosis Reveals a Mechanism for Chromosome Organization and Protection” (PLoS ONE, 2012).

Biological target: the molecule itself
Assay: SEC; S75 16/60GL or 10/300GL column, 20 mM tris-HCl pH 7.5, 150 mM NaCl; fresh sample, 14-week-old sample and sample treated with trypsin (1:500, 5 min, room temperature)

B1: Lsr2 N-terminal dimerization domain, construct Nterm2 (residues 1-61), freshly purified (domain or fragment)
chain: MAKKVTVTLVDDFDGSGAADETVEFGLDGVTYEIDLSTKNATKLRGDLKQWVAAGRRVGGR
notes: Lsr2 (Rv3597c) of Mycobacterium tuberculosis H37Rv, residues 1-61; also called N-Lsr2; Lsr2 N-terminal domain; not shown: His6, N-terminal, kept
- stoichiometry N: 2
